Common to all, as to assay: Dark and photocytotoxicity (MTT)
Assay type in all cases: cell-based, human

The test system of one data set is A549 cells. Particulars: without light irradiation, up to 4 μM, all conditions (with or without inhibitors). As for the experimental part: (§1) The dark- and photocytotoxicity of 1 was also investigated against all four cell lines under the different conditions as described, using 14 as a negative control. […] Without light irradiation, both 1 and 14 were noncytotoxic up to 4 μM for all conditions. Upon light irradiation (λ > 610 nm, 23 mW cm^–2, 28 J cm^–2), both conjugates however could induce a different extent of cytotoxicity. […] The results could be attributed to the intrinsic difference in the MMP-2 levels in these cells. […] The photocytotoxicity was further reduced under the dual inhibition condition, for which the IC50 values (>4 μM) also could not be determined. […] The overall results generally followed the trend of intracellular ROS generation as reported above. […]
(§2) Approximately 2 × 10^4 cells per well (100 µL) in the corresponding medium were inoculated in 96-well plates and incubated overnight at 37 °C in a humidified 5% CO 2 atmosphere. A stock solution of 1 or 14 (1 mM) was prepared as described above, which was diluted with a serum-free medium to various concentrations. The cells, after being rinsed with PBS twice, were treated with or without SB -3CT (10 μM) and/or CA -074 Me (25 μM) in the medi um (100 μL) for 2 h. The cells were further incuba ted with 100 μL of different concentrations of 1 or 14 for 1 h at 37 °C under 5% CO2. After being rinsed with PBS twice, the cells were incubated in the culture medium (100 μL) for 6 h. The cells were then rinsed with PBS and re -fed with 100 μL of a serum-containing medium before being irradiated (λ > 610 nm, 23 mW cm –2, 28 J cm– 2) at ambient temperature. Cell viability was determined by means of a colorimetric MTT assay.R7 After irradiation, the cells were incubated at 37 °C under 5% CO 2 overnight. After incubation, the medium was removed and the cell s were rinsed with PBS twice. A MTT (S igma) solution in PBS (3 mg mL -1, 50 μL) was added to each well followed by incubation for 4 h under the same environment. DMSO (100 μL) was then added to each well. Solutions in all the wells were mixed until homogenous. The absorbance at 490 nm of each w ell on the plate was […]
(§3) taken by a microplate reader (Tecan Spark 10M) at ambient temperature. The average […]
(§4) of the other wells. The cell viability was then determined by the equation: […]
(§5) where Ai is the absorbance of the ith datum (i = 1, 2, …, n), Acontrol is the average absorbance of the control wells in which the compound was absent, and n (= 4) is the number of data points. […]

Another data set concerns HEK-293 cells. Particulars: for dark cytotoxicity: without light irradiation, up to 4 μM, all conditions. As for the experimental part: as §1, §2, §3, §4, §5
For another data set, the system named is HeLa cells. Particulars: without light irradiation, up to 4 μM, all conditions. As to the method:
as §1, §2, §3, §4, §5

The test system of the next data set is U-87 MG cells. Particulars: without light irradiation, up to 4 μM, all conditions. As for the experimental part:
as §1, §2, §3, §4, §5

As to `CCN(CC)c1ccc2nc3ccc(/N=N/c4ccc(N(C)CCCNC(=O)OC[C@@H]5[C@@H]6CCc7nnn(CC(=O)NCCCC[C@@H]8NC(=O)CNC(=O)[C@H](CCCCN)NC(=O)[C@H](CCCNC(=N)N)NC(=O)[C@H](C(C)C)NC(=O)CNC(=O)[C@H](CC(C)C)NC(=O)[C@@H]9CCCN9C(=O)[C@H](CCCCN)NC(=O)[C@@H](N)CSCc9cc(COc%10ccc(C%11=C%12C(C)=C(I)C(/C=C/c%13ccc(OCCOCCOCCOC)cc%13)=[N+]%12[B-](F)(F)n%12c(/C=C/c%13ccc(OCCOCCOCCOC)cc%13)c(I)c(C)c%12%11)cc%10)cc(c9)CSC[C@@H](C(N)=O)NC(=O)[C@H](CCCCN)NC(=O)[C@H](CCCCN)NC(=O)CNC(=O)[C@H](CC(C)C)NC(=O)[C@H](Cc9ccccc9)NC(=O)CNC(=O)[C@H](CCCCN)NC(=O)CNC8=O)c7CC[C@@H]65)cc4)cc3[n+](-c3ccccc3)c2c1` [compound 1], the dark cytotoxicity entry in the data set on A549 cells, with HEK-293 cells, with HeLa cells and in the data set on U-87 MG cells was “noncytotoxic” each time. Further, the IC50 (as a rule, the point on the concentration scale where inhibition reaches its midpoint) in the data set on HEK-293 cells (no inhibitor, 1 h + 6 h, light λ > 610 nm, 23 mW cm-2, 28 J cm-2) is more than 4 µM.

In the case of `CCN(CC)c1ccc2nc3ccc(/N=N/c4ccc(N(C)CCCNC(=O)OC[C@@H]5[C@@H]6CCc7nnn(CC(=O)NCCCC[C@@H]8NC(=O)CNC(=O)[C@H](CCCCN)NC(=O)CNC(=O)CNC(=O)CNC(=O)CNC(=O)CNC(=O)[C@H](CCCCN)NC(=O)[C@@H](N)CSCc9cc(COc%10ccc(C%11=C%12C(C)=C(I)C(/C=C/c%13ccc(OCCOCCOCCOC)cc%13)=[N+]%12[B-](F)(F)n%12c(/C=C/c%13ccc(OCCOCCOCCOC)cc%13)c(I)c(C)c%12%11)cc%10)cc(c9)CSC[C@@H](C(N)=O)NC(=O)[C@H](CCCCN)NC(=O)[C@H](CCCCN)NC(=O)CNC(=O)CNC(=O)CNC(=O)CNC(=O)[C@H](CCCCN)NC(=O)CNC8=O)c7CC[C@@H]65)cc4)cc3[n+](-c3ccccc3)c2c1` [compound 14], the dark cytotoxicity result in the data set on A549 cells, in the data set on HEK-293 cells, with HeLa cells and with U-87 MG cells was “noncytotoxic” in each case.

Values taken from publication PMC10080691, “Enzyme-Responsive Double-Locked Photodynamic Molecular Beacon for Targeted Photodynamic Anticancer Therapy” (Journal of the American Chemical Society, 2023).
